Data: patent US20210047426A1 (MacroGenics, published 2021)

Key:
[1] = molecular target: T1, Human CD123 on the surface of leukemic cell lines (human, UniProt P26951 19-378); assay: cell-based or functional assay
[2] = molecular target: T2, Human CD123-His (soluble human IL3R-alpha) (human, UniProt P26951 19-305, limits assumed); assay: BIACORE surface plasmon resonance, purified human CD123 captured and immobilized, 1:1 binding fit
T2 construct: also called interleukin 3 receptor alpha chain; not shown: His tag
T2 sequence (looked up): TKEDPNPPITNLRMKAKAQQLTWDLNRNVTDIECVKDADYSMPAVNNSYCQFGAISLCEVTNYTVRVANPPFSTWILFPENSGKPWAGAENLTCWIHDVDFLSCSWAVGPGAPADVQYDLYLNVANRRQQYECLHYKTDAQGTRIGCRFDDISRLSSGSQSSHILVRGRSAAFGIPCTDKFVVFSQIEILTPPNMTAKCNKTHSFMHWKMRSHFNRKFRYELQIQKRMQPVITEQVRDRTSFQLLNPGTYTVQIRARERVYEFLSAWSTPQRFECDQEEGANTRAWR
Description: (§1) BIACORE™ analyses measure the dissociation off-rate, kd. The binding affinity (KD) between an antibody and its target is a function of the kinetic constants for association (on rate, ka) and dissociation (off-rate, kd) according to the formula: KD=[kd]/[ka]. The BIACORE™ analysis uses surface plasmon resonance to directly measure these kinetic parameters. Recombinant human or cynomolgus monkey CD3 was directly immobilized to a support. Purified human or cynomolgus monkey CD123 was captured and immolbilized to a support. The time course of dissociation was measured and a […] of the data conducted. Binding constants and affinity were obtained using a 1:1 binding fit.

[3] = molecular target: T2, Human CD123-His (soluble human …); assay: SPR (BIAcore 3000), antigen immobilized on the chip, DART-A injected, 1:1 Langmuir fit, mean of 3 experiments
Procedure: (§2) Briefly, the carboxyl groups on the CMS sensor chip were activated with an injection of 0.2M N-ethyl-N-([…]) carbodiimide and 0.05M N-hydroxy-succinimide. Soluble CD3 or CD123 (1 μg/ml) was injected over the activated CMS surface in 10 mM sodium-acetate, pH 5.0, at flow rate 5 μL/min, followed by 1 M ethanolamine for deactivation. Binding experiments were performed in 10 mM HEPES, pH 7.4, 150 mM NaCl, 3 mM EDTA and 0.005% P20 surfactant. Regeneration of the immobilized receptor surfaces was performed by pulse injection of 10 mM glycine, pH 1.5. KD values were determined by a global fit of binding curves to the Langmuir 1:1 binding model (BIAevaluation software v4.1).
(§3) The data in Table 7 are averages of 3 independent experiments each performed in duplicates.

[4] = molecular target: T3, Cynomolgus CD123-His (soluble cynomolgus IL3R-alpha) (cynomolgus monkey); assay: as above
T3 construct: also called cynomolgus monkey CD123; monkey CD123
Procedure: as §2, §3

[5] = molecular target: T2, Human CD123-His (soluble human …); assay: bifunctional ELISA, plate coated with human CD123, detection with human CD3-biotin and streptavidin-HRP
Procedure: (§4) A MaxiSorp ELISA plate (Nunc) coated overnight with the soluble human or cynomolgus IL3R-alpha (0.5 μg/mL) in bicarbonate buffer was blocked with 0.5% BSA; 0.1% Tween-20 in PBS (PBST/BSA) for 30 minutes at room temperature. […] HRP activity was detected by conversion of tetramethylbenzidine (BioFX) as substrate for 5 min; the reaction was terminated with […] of 1% […] and the absorbance read at 450 nm.

[6] = molecular target: T3, Cynomolgus CD123-His (soluble …); assay: BIACORE surface plasmon resonance, purified cynomolgus monkey CD123 captured and immobilized, 1:1 binding fit
Description: as §1

[7] = molecular target: T3, Cynomolgus CD123-His (soluble …); assay: bifunctional ELISA, plate coated with cynomolgus monkey CD123, detection with human CD3-biotin and streptavidin-HRP
Procedure: as §4

[8] = molecular target: T1, Human CD123 on the surface of leukemic …; assay: FACS on Molm-13 cells, detection with a monoclonal antibody to the E-coil/K-coil region

B1: Sequence-Optimized CD123 × CD3 Bi-Specific Diabody Having an Albumin-Binding Domain (DART-A w/ABD) (bispecific antibody)
chain 1: QAVVTQEPSLTVSPGGTVTLTCRSSTGAVTTSNYANWVQQKPGQAPRGLIGGTNKRAPWTPARFSGSLLGGKAALTITGAQAEDEADYYCALWYSNLWVFGGGTKLTVLGGGGSGGGGEVQLVQSGAELKKPGASVKVSCKASGYTFTDYYMKWVRQAPGQGLEWIGDIIPSNGATFYNQKFKGRVTITVDKSTSTAYMELSSLRSEDTAVYYCARSHLLRASWFAYWGQGTLVTVSSGGCGGGEVAALEKEVAALEKEVAALEKEVAALEKGGGSLAEAKVLANRELDKYGVSDYYKNLIDNAKSAEGVKALIDEILAALP
chain 2: DFVMTQSPDSLAVSLGERVTMSCKSSQSLLNSGNQKNYLTWYQQKPGQPPKLLIYWASTRESGVPDRFSGSGSGTDFTLTISSLQAEDVAVYYCQNDYSYPYTFGQGTKLEIKGGGSGGGGEVQLVESGGGLVQPGGSLRLSCAASGFTFSTYAMNWVRQAPGKGLEWVGRIRSKYNNYATYYADSVKDRFTISRDDSKNSLYLQMNSLKTEDTAVYYCVRHGNFGNSYVSWFAYWGQGTLVTVSSGGCGGGKVAALKEKVAALKEKVAALKEKVAALKE
EC50 of redirected killing of Kasumi-3 cells (LDH release, E:T = 10:1) [1]: 0.01 ng/mL | EC50 of redirected killing of Molm13 cells (LDH release, E:T = 10:1) [1]: 0.18 ng/mL | EC50 of redirected killing of RS4-11 cells (LDH release, E:T = 10:1) [1]: 0.5 ng/mL | EC50 of redirected killing of TF-1 cells (LDH release, E:T = 10:1) [1]: 0.46 ng/mL | EC50 of redirected killing of THP-1 cells (LDH release, E:T = 10:1) [1]: 0.24 ng/mL

B2: Sequence-Optimized CD123 × CD3 Bi-Specific Diabody (DART-A) (bispecific antibody)
chain 1: QAVVTQEPSLTVSPGGTVTLTCRSSTGAVTTSNYANWVQQKPGQAPRGLIGGTNKRAPWTPARFSGSLLGGKAALTITGAQAEDEADYYCALWYSNLWVFGGGTKLTVLGGGGSGGGGEVQLVQSGAELKKPGASVKVSCKASGYTFTDYYMKWVRQAPGQGLEWIGDIIPSNGATFYNQKFKGRVTITVDKSTSTAYMELSSLRSEDTAVYYCARSHLLRASWFAYWGQGTLVTVSSGGCGGGEVAALEKEVAALEKEVAALEKEVAALEK
chain 2: B1 chain 2
notes: Two-chain heterodimer, the chains disulfide-bonded to one another; one CD123 site and one CD3 site; 58.9 kDa
Kd [2]: 140 pM | Kd [3]: 130 pM | koff [3]: 0.00019 s⁻¹ | kon [3]: 1.6e+06 M⁻¹ s⁻¹ | Kd [4]: 270 pM | koff [4]: 0.0004 s⁻¹ | kon [4]: 1.5e+06 M⁻¹ s⁻¹ | EC50 (read off the curve) [5]: ~10 ng/mL | Kd [6]: 270 pM | EC50 (read off the curve) [7]: ~40 ng/mL

B3: Control Bi-Specific Diabody (Control DART) (bispecific antibody)
chain 1: DVVMTQTPFSLPVSLGDQASISCRSSQSLVHSNGNTYLRWYLQKPGQSPKVLIYKVSNRFSGVPDRFSGSGSGTDFTLKISRVEAEDLGVYFCSQSTHVPWTFGGGTKLEIKGGGSGGGGEVQLVESGGGLVQPGGSLRLSCAASGFTFNTYAMNWVRQAPGKGLEWVARIRSKYNNYATYYADSVKDRFTISRDDSKNSLYLQMNSLKTEDTAVYYCVRHGNFGNSYVSWFAYWGQGTLVTVSSGGCGGGEVAALEKEVAALEKEVAALEKEVAALEK
chain 2: QAVVTQEPSLTVSPGGTVTLTCRSSTGAVTTSNYANWVQQKPGQAPRGLIGGTNKRAPWTPARFSGSLLGGKAALTITGAQAEDEADYYCALWYSNLWVFGGGTKLTVLGGGGSGGGGEVKLDETGGGLVQPGRPMKLSCVASGFTFSDYWMNWVRQSPEKGLEWVAQIRNKPYNYETYYSDSVKGRFTISRDDSKSSVYLQMNNLRVEDMGIYYCTGSYYGMDYWGQGTSVTVSSGGCGGGKVAALKEKVAALKEKVAALKEKVAALKE
notes: Bi-specific for fluorescein (FITC) and CD3; has no CD123 arm; also called FITC × CD3 control diabody
binding result [8]: no binding | binding result [5]: no binding (tested: 1 ug/mL)
